From the NTF2 design screens of Basanta et al. (2020)

Assay: protease stability score; higher = more stable; yeast display proteolysis, trypsin and chymotrypsin;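 note: relative to predicted unfolded state with 0 unfolded-like and 1 meaning tenfold more protease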

Row | Sequence | protease stability score
1 | SEDDERSEKAAEKWLHNFVTGDFKEMSDNLDPNTRLHVDGKDFVGMELVLKIFEDLWDHLGVDHVLINDSHVHVIDGKLHSHLDVTEEVNGRRRRVEIIIIAVKVNGRWRQKEVHIMFR | 0.794
2 | SEDDERWEKFMEELERAAHTGDWRFFKKMIDPEVRIDINGKEIIGMDEYIRHEKERLKRLGHTNVDIQIIIHRTERQGDKLDVDTEIRIHIGDKTITFRMTLILIKVNGVWLIKAMIIH | 1.56
3 | SEDDESLKRHIDLLLRVLETGNEEDLFRMIDPDAKMDWNGVDNHGMELIHKVWHELGLSNVRSHTEDFRVVGDKAEIHIRVEFNGRHHRVEIHTLKINGRWRVRRFHIR | 2.4
4 | SEDDETIERASRLLVEDHDTGDWESWEKNADPNMRLVIGDKDVVGRENVVEHLHRLRKKMGVKHVHLRVESIEVQGDKIRQDGRLLIIVNGQELRIEVRIVAIKVNGQWINRMVDVK | 1.08
5 | SEDDETSSKAMHRILEIFETGDWKKLAKLADPNVRLRIDGQDVHGRELFTKIFRTELERFGHEQFEVHKSHEDVQGDKLELHTLVIYGDKRERIEIHSVKFNGVWLISTMRIDRH | 0.935
6 | SEDDETVIRMTHIILHAIFTGDEHITERLMDPHAKVTVGEFDTHGWEELDRFWKEMRMKRLKIRRIDFRWVNGRILSEIVVELDGIVNGRERKITMLIVIIIDKIDGRWVVTEFHFRIE | 1.43
7 | SEDDEWLHNFIERLLHTILTGDEHIFSELADPNVRLDIGDKELHGWHLIVRHYIDEFRQFKGVRVHIRIRRFTQIGDKVHYDGELIFVIGDKTIIRELHLVVVKIDGRWKLEHFEIR | 2.74
8 | SEDDEYSELFVKTWFEILRTGDEEKIRRMLDPDARSTINGKDLHGRERIEEHLHELFLRLGLSNVKVHLHDYRFIGDKLHLHGKLTINGQEFDTKVDAWKFNGRWFMHQIHLR | 1.39
9 | SEDDHELEHAARRHFRDFWTGDWKSISRFLDPDAKVELLVNGQHIEIHGREQIIEQMLRIPNLRFELKRVHTEIYGEKMHVHVRGVVEFDGVREDVVLIFIFEKFNGRWHISKESREFR | 0.35
10 | SEDDHELEKLIRLWYDSVLTGDERTINELFDPNTRLEINGKVLHGMENFHRFVHTFLHHIRLKRIEIEDIKYINGVAHIDSRMVGDINGKDVRYETQFLVQKVDGKWVIKAVIIR | 2.08
11 | SEDDHELKEELKIIMKSSLTGDEDTLNRLADPHARIHQGEFNLHGREEFSRLFVELRMHDIRIEDYEVIDGRVEVDIRLNIHYNGKRYIKVTRSVFRKVDGRWLIEEVRYD | 0.494
12 | SEDDHERHRFLELIKHNHKTGNEENIYRMADPDVRLHIGDKEFHGMEHHMEFLREWLDRLGIDKVEFQVERIHVQGDKINVDVNLNVNGKHYRVILYLIKIDGRWRIKLLEIR | 0.884
13 | SEDDHMAELASRLVHERVKTGDPRVVDELLDPNVRLEYGDKEWHGREEFRKFLRHLRLHDVHIRSYEIQGDKVYIDGRVDGEVNGKRSLLETHIYAKKIDGRWLETSVVMK | 0.561
14 | SEDDHRAHEWFRIVFHWLLTGDEEHFDRYADPHTKVDINGVEFHGREEVRRWIYEIRLKDNRIRSVRAVGEKNESDGHRNGHIGDKHIVTDVEVRLHVVDGRIKSIHIIIH | 0.981
15 | SEDDKMQEIAVELLEHTLKTGDEHTSKKLVDPHVRLQIGDKEHHGRDEVTRWLTELAQRADHMHIEIKDMFNVNGVVIMHGTLKIHIGDKELRLDVEWIILKYNGKWLIHSIHIR | 1.94
16 | SEDDKREQDYHHYMMEIILTGDFKELFDLADPNVRLRIGDKHFHGRERMLDWYKHLSDRYKNARIHLHKKDYIGEKVIFHEIIHWNGKEVELHINMVIVNGRIRSIHVEDNER | 1.39
17 | SEDDKRLREIADLWKHAFLTGDFNLIHKLMDPHARWVVNGQHVHGMEEWEHFLERIDVFRIESSRTDHIEVYGDKVQIDGHSNVKIQIGDKKIDLITRMEIRLIIINGRYHQVEHIVR | 0.707
18 | SEDDKVVEEIARLWLHWVLTGDEEHLRELLDPHVRLHIDGRTYIGREEFLHKFHELRIHRFELKSIHVIGDKAQVDGHQDYKYNGKRIHLDTKVDLVVVDGVMHEIHIHLK | 1.78
19 | SEDDNLNEWMMRVWLTTLRTGDEKNTERLLDPNARLHVGDKDFHGRELLTKHFYDEVETLGFKHSELKRLLYQGEKMIIHVEVNINGVDIHIDVHIRKIDGRWYIHQVHVR | 2.14
20 | SEDDNMAEHVLRYFIEHHLTGDFDSILKLMDPNMRLEVNGREHWGRKRWSEHLLRMGFDHVDIEEHRINSYGNFAYEIIHGRYHINGQEINITLIINVEKVNGKWIIREVTIVKR | 1.74
